T1: Human CS1-Fc fusion protein (CS1 ectodomain S23~M226 with C-terminal human IgG1 Fc) (human, UniProt Q9NQ25 23-226)
T1 construct: range 23-226; Made in-house in Expi293 cells; also called recombinant CS1-Fc fusion protein; not shown: C-terminal human IgG1 Fc
T1 sequence (looked up): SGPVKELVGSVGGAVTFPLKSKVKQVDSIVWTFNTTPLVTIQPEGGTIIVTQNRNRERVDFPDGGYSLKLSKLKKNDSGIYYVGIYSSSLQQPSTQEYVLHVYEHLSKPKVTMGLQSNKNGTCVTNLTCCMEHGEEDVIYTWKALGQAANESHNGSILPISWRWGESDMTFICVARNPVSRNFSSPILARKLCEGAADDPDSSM

T2: Recombinant mouse CD40-Fc (1215-CD, R&D systems) (mouse, UniProt P27512 24-193, limits assumed)
T2 construct: Bought protein; also called recombinant CD40 protein
T2 sequence (looked up): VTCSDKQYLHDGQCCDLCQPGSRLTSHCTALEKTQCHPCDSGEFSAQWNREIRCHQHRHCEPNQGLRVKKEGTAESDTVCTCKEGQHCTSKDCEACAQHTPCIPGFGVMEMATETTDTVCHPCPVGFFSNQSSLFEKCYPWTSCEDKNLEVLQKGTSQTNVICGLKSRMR

B1: 2B1-Cκ (anti-human CD40 scFv clone 2B1 fused with human Cκ) (scFv)
scFv: QAALTQPSSVSANPGETVKITCSGGDSYAGSYYYGWFQQKAPGSAPVTVIYYNDKRPSDIPSRFSGSTSGSTSTLTITGVQAEDEAVYYCGSIDTSSGTGIFGAGTTLTVLGQSSRSSGGGGSSGGGGSAVTLDESGGGLQTPGGALSLVCKGSGFTFSSYQMFWVRQAPGKGLEYVAEISGSGLSTWYAPAVKGRATISRDNGQSTVRLQLNNLRAEDTGTYYCAKAAGSCGVGTCAGGIVDGIDAWGHGTEVIVSSTSGQAGQRTVAAPSVFIFPPSDEQLKSGTASVVCLLNNFYPREAKVQWKVDNALQSGNSQESVTEQDSKDSTYSLSSTLTLSKADYEKHKVYACEVTHQGLSSPVTKSFNRGES
notes: also called 2B1-Ck; free 2B1
B2: hCS1(#57)-Ck-His (anti-human CS1 scFv-Cκ-(G4S)2-6×His, clone #57) (scFv)
scFv: QAALTQPSSVSANLGETVKITCSGSSGNNYGWYQQKSPGSAPVTVIYYNDNRPSDIPSRFSGSKSGSTHTLTITGVQADDEAVYFCGSGDSSSNPGIFGAGTTLTVLGQSSRSSGGGGSSGGGGSAVTLDESGGGLQTPGGALSLVCKASGFTFSSHGMAWVRQAPGKGLEWVAGIDDSGSSTGYGSAVKGRATISRDNGQSTVRLQLNNLRAEDTGIYYCAKAYDTGCGWAGYNVYDCSADQIDAWGHGTEVIVSSTSGQAGQRTVAAPSVFIFPPSDEQLKSGTASVVCLLNNFYPREAKVQWKVDNALQSGNSQESVTEQDSKDSTYSLSSTLTLSKADYEKHKVYACEVTHQGLSSPVTKSFNRGESGGGGSGGGGSHHHHHH
notes: also called #57 clone; His tagged CS1 adaptor
B3: hCS1(#87)-Ck-His (anti-human CS1 scFv-Cκ-(G4S)2-6×His, clone #87) (scFv)
scFv: QAALTQPSSVSANPGETVKITCSGGGSYYGWYQQKSPGSAPVTVIYGNDKRPSNIPSRFSGSKSGSTATLTITGVQVEDEAVYFCGGWDSTDAGTFGAGTTLTVLGQSSRSSGGGGSSGGGGSAVTLDESGGGLQTPGGGLSLVCKASGFTFSSHGMAWVRQAPGKGLEWVAGIDDSGSSTGYGSAVKGRATISRDNGQSTVRLQLNNLRAEDTGIYYCAKAYDTGCGWAGYNVYDCSADQIDAWGHGTEVIVSSTSGQAGQRTVAAPSVFIFPPSDEQLKSGTASVVCLLNNFYPREAKVQWKVDNALQSGNSQESVTEQDSKDSTYSLSSTLTLSKADYEKHKVYACEVTHQGLSSPVTKSFNRGESGGGGSGGGGSHHHHHH
notes: also called #87 clone; His tagged CS1 adaptor
B4: C1C02-Cκ (anti-mouse CD40 scFv clone C1C02 fused with human immunoglobulin kappa light chain constant region) (scFv)
scFv: QAALTQPSSVSANPGETVKITCSGGSSNYGWYQQKSPGSAPATVIYDNTNRPSDIPSRFSGALSGSTATLTITGVQVEDEAVYYCGGYDSGTYAGIFGAGTTLTVLGQSSRSSGGGGSSGGGGSAVTLDESGGGLQTPGGTLSLACKGSGFTFSSVNMQWVRQAPGKGLEWVAGISSDGSYTAYGAAVKGRATISRDNGQSTVRLQLNNLRAEDTAIYYCAKIAGGYYWDAAYSIDMWGHGTEVIVSSTSGQAGQRTVAAPSVFIFPPSDEQLKSGTASVVCLLNNFYPREAKVQWKVDNALQSGNSQESVTEQDSKDSTYSLSSTLTLSKADYEKHKVYACEVTHQGLSSPVTKSFNRGES
notes: also called C1C02 scFv; anti-mouse CD40 antibody (clone C1C02)
B5: 2E1-Cκ (anti-human CD40 scFv clone 2E1 fused with human Cκ) (scFv)
scFv: QAALTQPSSVSANPGETVKITCSGSSSSYYGWYQQKAPGSAPVTLIYANDKRPSDIPSRFSGSKSGSTHTLTITGVQADDEAVYFCGSADSTDSGFGAGTTLTVLGQSSRSSGGGGSSGGGGSAVTLDESGGGLQTPGGALSLVCKASGFSFSSYSMHWVRQAPGKGLEFVAAISSDGSRYTHYGPAVKGRATISRDNGQSTVRLQLNNLRPEDTGTYYCAKTSNTWTWNTGWIDAWGHGTEVIVSSTSGQAGQRTVAAPSVFIFPPSDEQLKSGTASVVCLLNNFYPREAKVQWKVDNALQSGNSQESVTEQDSKDSTYSLSSTLTLSKADYEKHKVYACEVTHQGLSSPVTKSFNRGES
notes: also called 2E1-Ck

Key:
[1] = biological target: Mouse CD40 on cells (A20 lymphoma cells, EL4-mCD40 cells, peritoneal macrophages, splenic dendritic cells) (mouse) (UniProt P27512); assay: flow cytometry on A20 cells, anti-human Ck-APC (axis hCk); negative control
[2] = biological target: T3, Human CD40 on cells (Raji, Daudi, IM-9) (human, UniProt P25942 21-277); assay: flow cytometry on Raji cells, 1 ug/1x10^5 cells, anti-human Ck-APC (axis hCk); negative control
T3 construct: whole, on cells; also called cell surface CD40; hCD40

[3] = biological target: T4, Recombinant human CD40-Fc (1493-CDB, R&D systems) (human, UniProt P25942 21-193); assay: ELISA, human CD40-Fc coated at 2.5 ug/ml, serial dilutions 0.0001 to 1000 nM, anti-human Ck-HRP, absorbance 450 nm
T4 construct: Bought protein; also called human CD40 recombinant proteins
Protocol: FIG. 13A: Recombinant human CD40-Fc (2.5 μg/ml) was coated in ELISA plate and the serial diluents of 2B1-Ck, 2E1-Ck and irrelevant scFv antibody-Ck were loaded. The bound scFv-Cκs were detected by a secondary anti-human Cκ-HRP followed by chromogenic reaction with TMB substrate. The absorbance was measured at 450 nm. […] FIG. 13B: Raji, a CD40-expressing human B lymphoma cell line, was stained with 2B1-Ck, 2E1-Ck or the irrelevant scFv-Cκ (1 μg/1×10⁵ cells), and then stained with secondary anti-human Ck-APC. The binding intensity of the scFv-Cκs were analyzed by flow cytometry. The numbers are mean fluorescence intensities (MFIs) of the binding.
(§1) White leghorn chickens were immunized four times with recombinant mouse CD40 (50324-M08H, Sino Biological, China) or human CD40 (10774-H08H, Sino Biological) protein. Total RNA from the bursa of Fabricius, spleen, and bone marrow was isolated using TRIzol reagent (Invitrogen, USA), and cDNA was synthesized using a SuperScript III first-strand cDNA synthesis kit with oligo (dT) primers (Invitrogen) according to the manufacturer's instructions. The scFv phage-display libraries were constructed from the cDNAs as described previously⁵¹. […] The binding of the scFv-Cκs was measured with the secondary antibody (anti-human Cκ-HRP; AP502P, Sigma-Aldrich, USA).

[4] = biological target: T1, Human CS1-Fc fusion protein (CS1 …); assay: serial dilution ELISA of purified scFv-Cκ-His on coated hCS1-Fc, OD at 405 nm, detection with anti-human Cκ-HRP
Protocol: (§2) FIGS. 20A-C The individual specific binders are screened by ELISA and 23 different scFv clones were further characterized by sequencing. FIG. 20A: Reactivity of the selected scFv clones to human CS1 was assayed by measuring absorbance at 405 nm. The individual scFv clones were reactive to human CS1-His (▪) and human CS1-Fc ( ), but not hFc ( ) or BSA (□).Binding activity determination of selected clones specific to human CS1. The three clones selected from the phage ELISA were verified in a serial dilution ELISA after expression and purification as a form of scFv-Cκ-His. The y-axis of the graphs depicts the signal for serial dilutions of the antibodies, and the x-axis depicts the antibody concentration in the wells of the dilution series. The binding to human CS1-Fc is indicated as red, while the binding to BSA is indicated as blue. […] FIG. 20B: Binding activity of anti-human CS1 cFv-Cκ-His on J558/CS1 or J558 cells measured using flow cytometry. […] Binding of scFv adapters were detected by adding APC conjugated anti-human Cκ antibodies or APC conjugated anti-His tag secondary antibodies. FIG. 20C: Binding activity of anti-human CS1 scFv-Cκ-His on MM1.s cells measured using flow cytometry. Binding of the antibodies were detected by adding either an APC conjugated anti-human Cκ antibodies, or an APC conjugated anti-His tag secondary antibodies, respectively. […]

[5] = biological target: T5, BSA (bovine serum albumin) (bovine, UniProt P02769 25-607); assay: serial dilution ELISA on wells with blocking only (the legend calls this the binding to BSA), OD at 405 nm
T5 construct: Control antigen in the phage ELISA
Protocol: as §2

[6] = biological target: T2, Recombinant mouse CD40-Fc (1215-CD, R&D …); assay: ELISA, mouse CD40-Fc coated at 2.5 ug/ml, serial dilutions 0.0001 to 1000 nM, anti-human Ck-HRP, absorbance 450 nm
Protocol: FIG. 8A: Recombinant mouse CD40-Fc (2.5 μg/ml) was coated in ELISA plate and the serial diluents of C1C02-Cκ or the irrelevant scFv-Cκ were loaded. The bound scFv-Cκs were detected by a secondary anti-human Cκ-HRP followed by a chromogenic reaction with TMB substrate. The absorbance was measured at 450 nm. […] FIG. 8B: A20, a CD40-expressing mouse B lymphoma cell line, was stained with C1C02-Cκ (1 μg/1×10⁵ cells) or the irrelevant scFv-Cκ and then stained with a secondary anti-human Cκ-APC. The binding intensity of the scFv-Cκs was analyzed by flow cytometry. The numbers are the mean fluorescence intensities (MFIs) of the binding.
as §1

T5 sequence (P02769 25-607 limits assumed): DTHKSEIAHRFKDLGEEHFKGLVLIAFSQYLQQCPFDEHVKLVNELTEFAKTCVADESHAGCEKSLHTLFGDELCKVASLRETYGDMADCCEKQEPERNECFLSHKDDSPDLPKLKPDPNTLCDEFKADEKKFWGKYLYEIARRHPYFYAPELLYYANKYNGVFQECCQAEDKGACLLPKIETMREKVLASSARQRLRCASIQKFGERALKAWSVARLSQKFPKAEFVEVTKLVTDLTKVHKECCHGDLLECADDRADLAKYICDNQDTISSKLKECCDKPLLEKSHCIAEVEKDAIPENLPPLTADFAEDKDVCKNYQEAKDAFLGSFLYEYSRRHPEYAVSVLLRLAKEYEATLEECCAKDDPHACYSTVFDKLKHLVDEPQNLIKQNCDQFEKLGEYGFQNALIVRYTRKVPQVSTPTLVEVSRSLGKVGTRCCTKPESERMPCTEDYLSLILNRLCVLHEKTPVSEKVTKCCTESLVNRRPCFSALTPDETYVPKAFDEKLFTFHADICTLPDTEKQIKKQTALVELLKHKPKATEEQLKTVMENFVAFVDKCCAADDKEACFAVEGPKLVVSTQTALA
T4 sequence (P25942 21-193 limits assumed): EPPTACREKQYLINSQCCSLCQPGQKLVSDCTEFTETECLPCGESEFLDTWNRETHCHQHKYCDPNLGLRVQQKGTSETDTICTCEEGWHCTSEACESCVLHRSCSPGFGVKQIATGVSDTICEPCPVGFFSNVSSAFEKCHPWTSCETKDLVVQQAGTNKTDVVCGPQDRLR
T3 sequence (P25942 21-277): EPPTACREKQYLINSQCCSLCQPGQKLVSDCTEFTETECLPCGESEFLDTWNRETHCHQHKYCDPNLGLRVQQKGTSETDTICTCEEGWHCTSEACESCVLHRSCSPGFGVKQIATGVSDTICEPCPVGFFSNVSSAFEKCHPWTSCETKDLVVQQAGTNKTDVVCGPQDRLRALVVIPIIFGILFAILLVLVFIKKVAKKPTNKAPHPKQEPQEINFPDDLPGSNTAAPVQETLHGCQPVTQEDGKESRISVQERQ
Sequence of Mouse CD40 on cells (A20 lymphoma cells, EL4-mCD40 cells, peritoneal macrophages, splenic dendritic cells) (mouse) (P27512 20-289): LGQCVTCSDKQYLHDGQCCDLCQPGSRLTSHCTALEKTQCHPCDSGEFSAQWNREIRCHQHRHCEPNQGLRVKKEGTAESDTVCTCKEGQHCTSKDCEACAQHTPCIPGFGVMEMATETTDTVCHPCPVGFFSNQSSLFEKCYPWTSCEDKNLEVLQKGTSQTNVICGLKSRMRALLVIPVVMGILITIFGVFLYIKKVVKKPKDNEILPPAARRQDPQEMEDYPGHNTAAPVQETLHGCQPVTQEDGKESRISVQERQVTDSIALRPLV

| Molecule | EC50 [3] [nM] | EC50 [4] [nM] | binding result [5] | further results |
| --- | --- | --- | --- | --- |
| Irrelevant Ab-Ck (scFv) | – | – | – | MFI [1]: 24.6; MFI [2]: 3.78 |
| B1 | 0.365 | – | – | – |
| B2 | – | 9.3 | no binding | – |
| B3 | – | 2.9 | no binding | – |
| B4 | – | – | – | EC50 [6]: 1.28 nM |
| B5 | 1.06 | – | – | – |
